B1: HER2_DII-35.23.1.1^cisLALA (bispecific antibody, human IgG1, kappa, L234A L235A)
heavy 1: EVQLVESGGGLVQPGGSLRLSCAASGFTFTDYTMDWVRQAPGKGLEWVADVNPNSGGSIYNQRFKGRFTLSVDRSKNTLYLQMNSLRAEDTAVYYCARNLGPSFYFDYWGQGTLVTVSSASTKGPSVFPLAPSSKSTSGGTAALGCLVKDYFPEPVTVSWNSGALTSGVHTFPAVLQSSGLYSLSSVVTVPSSSLGTQTYICNVNHKPSNTKVDKKVEPKSCDKTHTCPPCPAPEAAGGPSVFLFPPKPKDTLMISRTPEVTCVVVDVSHEDPEVKFNWYVDGVEVHNAKTKPREEQYNSTYRVVSVLTVLHQDWLNGKEYKCKVSNKALPAPIEKTISKAKGQPREPQVYTLPPSRDELTKNQVSLWCLVKGFYPSDIAVEWESFGTEWSNYKTTPPVLDSDGSFFLYSKLTVSKEEWQQGFVFSCSVMHEALHNHYTQKSLSLSPGK
heavy 2: not shown
light: not shown
notes: Fc polypeptide dimer-Fab fusion; the second heavy chain is a hole Fc without a TfR site; also called ATV35.23.1.1:Her2_DII huIgG1.LALA.knob
B2: HER2_DII-35.23.4^cisLALA (bispecific antibody, human IgG1, kappa, L234A L235A)
heavy 1: EVQLVESGGGLVQPGGSLRLSCAASGFTFTDYTMDWVRQAPGKGLEWVADVNPNSGGSIYNQRFKGRFTLSVDRSKNTLYLQMNSLRAEDTAVYYCARNLGPSFYFDYWGQGTLVTVSSASTKGPSVFPLAPSSKSTSGGTAALGCLVKDYFPEPVTVSWNSGALTSGVHTFPAVLQSSGLYSLSSVVTVPSSSLGTQTYICNVNHKPSNTKVDKKVEPKSCDKTHTCPPCPAPEAAGGPSVFLFPPKPKDTLMISRTPEVTCVVVDVSHEDPEVKFNWYVDGVEVHNAKTKPREEQYNSTYRVVSVLTVLHQDWLNGKEYKCKVSNKALPAPIEKTISKAKGQPREPQVYTLPPSRDELTKNQVSLWCLVKGFYPSDIAVEWESYGTEWSNYKTTPPVLDSDGSFFLYSKLTVSKEEWQQGFVFSCSVMHEALHNHYTQKSLSLSPGK
heavy 2: not shown
light: not shown
notes: also called ATV:HER2-DII; ATV:-HER2-DII
B3: anti-HER2-DI (antibody, human IgG1, kappa, V domains shown)
VH: QVQLQQPGAELVRPGASVKLSCKASGYSFTGYWMNWLKQRPGQGLEWIGMIHPSDSEIRANQKFRDKATLTVDKSSTTAYMQLSSPTSEDSAVYYCARGTYDGGFEYWGQGTTLTVSS
VL: DIVLTQSPASLVVSLGQRATISCRASQSVSGSRFTYMHWYQQKPGQPPKLLIKYASILESGVPARFSGGGSGTDFTLNIHPVEEDDTATYYCQHSWEIPPWTFGGGTKLEIKR
B4: HER2_DI-35.23.4^cisLALA (bispecific antibody, human IgG1, kappa, L234A L235A)
heavy 1: QVQLQQPGAELVRPGASVKLSCKASGYSFTGYWMNWLKQRPGQGLEWIGMIHPSDSEIRANQKFRDKATLTVDKSSTTAYMQLSSPTSEDSAVYYCARGTYDGGFEYWGQGTTLTVSSASTKGPSVFPLAPSSKSTSGGTAALGCLVKDYFPEPVTVSWNSGALTSGVHTFPAVLQSSGLYSLSSVVTVPSSSLGTQTYICNVNHKPSNTKVDKKVEPKSCDKTHTCPPCPAPEAAGGPSVFLFPPKPKDTLMISRTPEVTCVVVDVSHEDPEVKFNWYVDGVEVHNAKTKPREEQYNSTYRVVSVLTVLHQDWLNGKEYKCKVSNKALPAPIEKTISKAKGQPREPQVYTLPPSRDELTKNQVSLWCLVKGFYPSDIAVEWESYGTEWSNYKTTPPVLDSDGSFFLYSKLTVSKEEWQQGFVFSCSVMHEALHNHYTQKSLSLSPGK
heavy 2: not shown
light: DIVLTQSPASLVVSLGQRATISCRASQSVSGSRFTYMHWYQQKPGQPPKLLIKYASILESGVPARFSGGGSGTDFTLNIHPVEEDDTATYYCQHSWEIPPWTFGGGTKLEIKRTVAAPSVFIFPPSDEQLKSGTASVVCLLNNFYPREAKVQWKVDNALQSGNSQESVTEQDSKDSTYSLSSTLTLSKADYEKHKVYACEVTHQGLSSPVTKSFNRGEC
notes: Fc polypeptide dimer-Fab fusion; the hole chain has no TfR site and no LALA; also called ATV:HER2-DI; ATV:-HER2-DI

Legend:
Human TfR apical domain [1] = target: T1, Human TfR apical domain (human, UniProt P02786 198-378); experiment: SPR (Biacore), apical hTfR
T1 construct: also called apical hTfR; human apical hTfR
T1 sequence (P02786 198-378 limits assumed): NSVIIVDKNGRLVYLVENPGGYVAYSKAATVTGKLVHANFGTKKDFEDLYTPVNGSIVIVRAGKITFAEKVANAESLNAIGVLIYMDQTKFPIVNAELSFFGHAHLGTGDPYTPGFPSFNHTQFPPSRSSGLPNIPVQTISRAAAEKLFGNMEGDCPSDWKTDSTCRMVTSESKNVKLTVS

Human TfR apical domain [2] = target: T1, Human TfR apical domain; experiment: SPR (Biacore 8K), fusion protein captured with Human Fab Capture Kit, human TfR apical domain as analyte, 1:1 kinetic fit
Experimental: The affinities of Fc polypeptide dimer-antibody variable region fusion proteins for human TfR apical domain and HER2 ECD were determined by surface plasmon resonance using a Biacore™ 8K. Fc polypeptide dimer-antibody variable region fusion proteins were captured using a Human Fab Capture Kit (GE, #28-9583-25) on Biacore™ Series S CM5 sensor chips (GE, #29149604) for measurement of human TfR apical domain binding, or using a Human Fc capture Kit (GE, #29234600) for measurement of human HER2-ECD binding (ACROBiosystems, HE2-H5225). Serial 3-fold dilutions of each antigen were injected at a flow rate of 30 μL/min. The binding of the antigens to captured Fc polypeptide dimer-antibody variable region fusion proteins was monitored for 30 to 300 seconds and then their dissociation was monitored for 30-4,200 seconds in HBS-EP+ running buffer. Binding responses were corrected by subtracting the RU from a blank flow cell. A 1:1 Languir model of simultaneous fitting of kₒₙ and koff was used for kinetics analysis.

[3] = target: HER2 on HER2-positive cancer cells (BT474, OE19, SK-BR-3) (human, UniProt P04626 23-1255); experiment: cell-based or functional assay
Human TfR apical domain [4] = target: T1, Human TfR apical domain; experiment: SPR (Biacore T200 or 8K), captured via anti-human Fab, recombinant TfR apical domain as analyte, steady-state affinity
Experimental: (§1) Affinities of mAbs and TfR-binding Fc polypeptides were measured by SPR using a Biacore T200 or a Biacore 8K. Biacore™ Series S CM5 sensor chips were immobilized with monoclonal mouse anti-human IgG (Fc) antibody for HER2 affinity measurements or mouse anti-human Fab for TfR affinity measurements (human antibody or Fab capture kit from GE Healthcare). Serial 3-fold dilutions of analyte (recombinant HER2 extracellular domain or recombinant TfR apical domain) were injected at a flow rate of 30 μL/min. Each sample was analyzed using a 3-minute association and a 10-minute dissociation. After each injection, the chip was regenerated using 3 M MgCl₂. Binding response was corrected by subtracting the RU from a flow cell capturing an irrelevant IgG at similar density. A 1:1 Languir model of simultaneous fitting of kₒₙ and koff was used for kinetics analysis.

[5] = target: T2, HER2 extracellular domain (human, UniProt P04626 23-652); experiment: SPR (Biacore T200 or 8K), captured via anti-human IgG (Fc), recombinant HER2 extracellular domain as analyte, 1:1 kinetic fit
T2 construct: extracellular domain; also called HER2 ECD; HER2-ECD
Experimental: as §1

Human TfR apical domain [6] = target: T1, Human TfR apical domain; experiment: SPR (Biacore), antibody captured via anti-human Fab, recombinant TfR apical domain as analyte; the table footnote says NB = no binding
Experimental: as §1

| Binder | Kd (Human TfR apical domain [1]) [nM] | Kd (Human TfR apical domain [2]) [nM] | IC50, BT474 cell viability (growth inhibition assay) [3] [nM] | IC50, OE19 cell viability (growth inhibition assay) [3] [nM] | Kd (Human TfR apical domain [4]) [nM] | Kd [5] [nM] | koff [5] [s⁻¹] | kon [5] [M⁻¹ s⁻¹] | binding result (Human TfR apical domain [6]) |
| --- | --- | --- | --- | --- | --- | --- | --- | --- | --- |
| B1 | 620 | 534 |  |  |  |  |  |  |  |
| B2 |  | 445 | 1.17 | 0.725 | 450 |  |  |  |  |
| B3 |  |  |  |  |  | 6.5 | 0.00101 | 154000 | no binding |
| B4 |  |  |  |  | 370 | 7.5 | 0.00105 | 139000 |  |
